Measured values taken from the supplement of paper PMC12667976.
± gives the standard error.

B1: library; numbered along this chain (parent)
chain: MATDAALRRLLRLHRTEIAVAVDSAFPLLHALADHDVVPEDKFQETLHLKEKEGCPQAFHALLSWLLTQDSTAILDFWRVLFKDYNLERYGRLQPILDSFPKDVDLSQPRKGRKPPAVPKALVPPPRLPTKRKASEEARAAAPAALTPRGTASPGSQLKAKPPKKPESSAEQQRLPLGNGIQTMSASVQRAVAMSSGDVPGARGAVEGILIQQVFESGGSKKCIQVGGEFYTPSKFEDSGSGKNKARSSSGPKPLVRAKGAQGAAPGGGEARLGQQGSVPAPLALPSDPQLHQKNEDECAVCRDGGELICCDGCPRAFHLACLSPPLREIPSGTWRCSSCLQATVQEVQPRAEEPRPQEPPVETPLPPGLRSAGEEVRGPPGEPLAGMDTTLVYKHLPAPPSAAPLPGLDSSALHPLLCVGPEGQQNLAPGARCGVCGDGTDVLRCTHCAAAFHWRCHFPAGTSRPGTGLRCRSCSGDVTPAPVEGVLAPSPARLAPGPAKDDTASHEPALHRDDLESLLSEHTFDGILQWAIQSMARPAAPFPS

Variants of: B1
Assay: AIRE transcriptional activation functional score (insulin promoter-GFP; nonsense median 0, synonymous median 1) (normalised score); higher = higher AIRE activity (more reporter activation)
Conditions: with insulin promoter-GFP reporter in HEK293
Method in brief: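 Flp-In T-REx HEK293 landing-pad cells carrying an insulin core promoter-GFP reporter received codon-optimized AIRE NNN-codon libraries (three regions) through Bxb1 recombinase. Sorting of mCherry+, BFP− integrants took place at day 7, followed by 7 days of expansion and tile-sequencing of top 10% GFP and unselected integrant populations. A functional score was derived from select versus non-select variant enrichment with wild type subtracted. Values from variants reaching 10 counts per million in non-select were set to nonsense median 0 and synonymous median 1 and averaged over biological replicates.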

AIRE transcriptional activation functional score, by site and new letter:
G462: H 0.925 ± 0.089 | I 0.802 ± 0.27 | K -0.837 ± 0.47 | L 0.83 ± 0.49 | M -0.0181 ± 0.26 | N 1.34 ± 0.14 | P 0.607 ± 0.22 | Q 1.03 ± 0.042 | R 1.01 ± 0.11 | S 0.982 ± 0.23 | T 0.372 ± 0.6 | V 1.03 ± 0.18 | W 0.899 ± 0.042 | Y 1.24 ± 0.089
T463: A 0.614 ± 0.19 | C 1.42 ± 0.16 | D 1.54 ± 0.082 | F 0.0316 ± 0.15 | G 1.01 ± 0.066 | H 0.813 ± 0.078 | I 0.876 ± 0.1 | K 0.983 ± 0.24 | L 1.06 ± 0.14 | M 1.51 ± 0.09 | N 0.736 ± 0.57 | P 1.14 ± 0.17 | Q 0.155 ± 0.73 | R 0.998 ± 0.24 | S 1.01 ± 0.25 | V 1.49 ± 0.074 | W 1.05 ± 0.021 | Y 0.384 ± 1
S464: A 0.955 ± 0.39 | C 1.18 ± 0.15 | D 0.7 ± 0.34 | E 1.32 ± 0.084 | F 0.807 ± 0.17 | G 1.27 ± 0.2 | H 1.17 ± 0.17 | I 1.17 ± 0.076 | K 1.18 ± 0.19 | L 1.06 ± 0.28 | M -0.078 ± 0.07 | N 0.563 ± 0.36 | P 1.21 ± 0.22 | R 0.955 ± 0.15 | T 0.783 ± 0.11 | V 0.722 ± 0.23 | W -0.451 ± 0.18 | Y 1.23 ± 0.052
R465: A 0.476 ± 0.11 | C 0.66 ± 0.18 | D 0.53 ± 0.072 | F 1.15 ± 0.032 | G 0.791 ± 0.25 | H 0.546 ± 0.17 | I 0.773 ± 0.47 | L 1.01 ± 0.4 | M 0.403 ± 0.26 | N -1.1 ± 0.54 | P 0.829 ± 0.13 | Q 0.443 ± 0.2 | S 1.04 ± 0.19 | T -0.654 ± 0.16 | V 0.453 ± 0.28 | W 1.18 ± 0.033 | Y 1.39 ± 0.062
P466: A 0.83 ± 0.3 | C 1.89 ± 0.097 | D 0.553 ± 0.043 | E 0.232 ± 0.26 | F 0.774 ± 0.31 | G 1.23 ± 0.09 | H 1.46 ± 0.26 | I 1.21 ± 0.15 | K 0.864 ± 0.1 | L 1.1 ± 0.16 | M 0.678 ± 0.14 | N 0.444 ± 0.26 | Q 1.02 ± 0.13 | R 0.843 ± 0.16 | S 1.08 ± 0.45 | T 1.12 ± 0.2 | V 1.06 ± 0.25 | W 1.42 ± 0.038 | Y 1.21 ± 0.21
G467: A 0.947 ± 0.23 | C 0.822 ± 0.074 | D 0.675 ± 0.16 | E 1.16 ± 0.064 | F 1.29 ± 0.12 | H 1.42 ± 0.22 | I 0.79 ± 0.5 | K 0.889 ± 0.075 | L 1.46 ± 0.33 | M 0.866 ± 0.058 | N 0.68 ± 0.09 | P 1.04 ± 0.11 | R 1.01 ± 0.36 | S 1.06 ± 0.13 | T 0.0754 ± 0.27 | V 1.06 ± 0.32 | W 1.12 ± 0.12 | Y 0.488 ± 0.17
T468: A 1.03 ± 0.21 | C 1.14 ± 0.24 | D 1.18 ± 0.066 | E 0.46 ± 0.12 | F 1.02 ± 0.15 | G 1.08 ± 0.33 | H 0.996 ± 0.11 | I 1.16 ± 0.17 | K 0.654 ± 0.15 | L 1.18 ± 0.18 | M 1.12 ± 0.053 | N 1.08 ± 0.15 | P 0.984 ± 0.27 | Q 1.22 ± 0.19 | R 0.696 ± 0.3 | S 0.945 ± 0.19 | V 0.997 ± 0.24 | W 1.29 ± 0.042 | Y 1.25 ± 0.2
G469: A 0.409 ± 0.37 | C 1.56 ± 0.064 | D 0.77 ± 0.46 | E 0.672 ± 0.2 | F 1.42 ± 0.095 | H 1.19 ± 0.29 | I 0.951 ± 0.33 | K 0.564 ± 0.23 | L 0.726 ± 0.3 | M 1.18 ± 0.044 | N 1 ± 0.089 | P 0.911 ± 0.2 | Q 0.807 ± 0.11 | R 0.913 ± 0.23 | S 1.15 ± 0.27 | T 0.687 ± 0.22 | V 1.14 ± 0.17 | W 1.08 ± 0.024
L470: A 1.02 ± 0.089 | C 0.85 ± 0.11 | D 0.572 ± 0.11 | E 0.628 ± 0.14 | F 0.971 ± 0.13 | G 0.741 ± 0.084 | H 0.541 ± 0.12 | I 0.814 ± 0.23 | K 0.988 ± 0.22 | M 0.671 ± 0.069 | N 1.06 ± 0.046 | P 0.863 ± 0.21 | Q 1.11 ± 0.13 | R 0.997 ± 0.19 | S 0.622 ± 0.39 | T 0.558 ± 0.33 | V 0.842 ± 0.23 | W 1.38 ± 0.048 | Y 0.549 ± 0.28
R471: A 0.351 ± 0.28 | C 0.215 ± 0.1 | D 0.476 ± 0.075 | E 0.786 ± 0.84 | F 1.09 ± 0.21 | G 0.676 ± 0.33 | H 1.03 ± 0.1 | I 1.05 ± 0.38 | K 0.921 ± 0.077 | L 0.799 ± 0.34 | M 1.36 ± 0.14 | P 0.89 ± 0.25 | Q 0.5 ± 0.21 | S 0.674 ± 0.38 | T 0.747 ± 0.38 | V 0.217 ± 0.32 | W 1.12 ± 0.1 | Y 1.13 ± 0.23
C472: A -0.164 ± 0.22 | D -0.251 ± 0.19 | E 0.216 ± 0.091 | F 0.226 ± 0.17 | G 0.0511 ± 0.1 | H -0.28 ± 0.12 | I 0.154 ± 0.19 | K 0.158 ± 0.12 | L -0.0415 ± 0.19 | M -0.0949 ± 0.19 | N 0.0317 ± 0.94 | P -0.298 ± 0.19 | Q -0.424 ± 0.073 | R 0.0742 ± 0.14 | S -0.0588 ± 0.17 | T -0.165 ± 0.16 | V 0.0438 ± 0.1 | W -0.112 ± 0.06 | Y 0.117 ± 0.072
R473: A 0.794 ± 0.38 | C 0.937 ± 0.055 | D 0.836 ± 0.06 | E 1.16 ± 0.2 | F 0.997 ± 0.18 | G 0.848 ± 0.2 | H -0.49 ± 0.25 | I 0.852 ± 0.71 | K 0.66 ± 0.16 | L 1.29 ± 0.21 | M 0.947 ± 0.08 | N 0.99 ± 0.077 | P 0.607 ± 0.32 | Q 0.968 ± 0.13 | S 0.755 ± 0.1 | T 1.06 ± 0.22 | V 0.334 ± 0.23 | W 0.97 ± 0.13 | Y 1.64 ± 0.16
S474: A 0.936 ± 0.28 | C 0.824 ± 0.33 | D 1.33 ± 0.69 | E 1.16 ± 0.11 | F 1.12 ± 0.067 | G 0.801 ± 0.26 | H 0.593 ± 0.069 | I 0.0981 ± 0.21 | K 0.466 ± 0.19 | L 0.185 ± 0.081 | M 0.192 ± 0.059 | N 0.296 ± 0.24 | P 1.17 ± 0.28 | Q 1.02 ± 0.055 | R 0.817 ± 0.32 | T 0.317 ± 0.15 | V 0.167 ± 0.17 | Y 0.736 ± 0.19
C475: A 0.119 ± 0.18 | D -0.0916 ± 0.039 | E -0.103 ± 0.23 | F 0.14 ± 0.18 | G 0.304 ± 0.28 | H 0.16 ± 0.15 | I 0.147 ± 0.15 | K -0.353 ± 0.079 | L 0.0763 ± 0.17 | M -0.469 ± 0.15 | N 0.255 ± 0.099 | P -0.156 ± 0.23 | Q 0.568 ± 0.1 | R -0.148 ± 0.29 | S 0.0047 ± 0.16 | T 0.102 ± 0.073 | V 0.0724 ± 0.17 | W -0.0091 ± 0.044 | Y 0.0941 ± 0.16
S476: A 0.905 ± 0.28 | C 0.608 ± 0.23 | D 0.455 ± 0.12 | E 0.948 ± 0.19 | F 1.21 ± 0.13 | G 0.844 ± 0.26 | H 0.529 ± 0.051 | I 1.23 ± 0.15 | K 0.603 ± 0.21 | L 0.829 ± 0.29 | M 0.943 ± 0.047 | P 1.02 ± 0.29 | Q 0.151 ± 0.11 | R 0.828 ± 0.26 | T 1.2 ± 0.2 | V 0.878 ± 0.21 | W 1.09 ± 0.037 | Y 1.19 ± 0.18
G477: A 0.739 ± 0.25 | C 0.926 ± 0.17 | D 0.678 ± 0.17 | E 0.302 ± 0.23 | F 1.36 ± 0.11 | H 1.41 ± 0.098 | I 1.01 ± 0.33 | K 1.11 ± 0.11 | L 0.273 ± 0.39 | M 1.01 ± 0.059 | N 1.12 ± 0.16 | P 1.46 ± 0.14 | Q 0.0223 ± 0.072 | R 0.787 ± 0.29 | S 0.661 ± 0.27 | T -0.261 ± 0.17 | V 1.13 ± 0.3 | W 0.745 ± 0.15 | Y 0.642 ± 0.12
D478: A 0.808 ± 0.31 | C 0.947 ± 0.032 | E 1.09 ± 0.098 | F 0.799 ± 0.11 | G 0.841 ± 0.13 | H 0.829 ± 0.047 | I 1.06 ± 0.083 | K 0.926 ± 0.088 | L 0.949 ± 0.13 | M 0.485 ± 0.043 | N 0.709 ± 0.056 | P 0.801 ± 0.34 | Q 0.891 ± 0.1 | R 0.412 ± 0.24 | S 0.816 ± 0.23 | T 0.678 ± 0.31 | V 0.89 ± 0.17 | W 0.544 ± 0.033 | Y 0.902 ± 0.085
V479: A 0.734 ± 0.36 | C 1.15 ± 0.25 | D 0.363 ± 0.13 | E 1.39 ± 0.038 | F 0.98 ± 0.093 | G 0.838 ± 0.33 | H 1.16 ± 0.12 | I 0.977 ± 0.18 | K 0.833 ± 0.14 | L 0.811 ± 0.29 | M 1.1 ± 0.13 | N 1.08 ± 0.13 | P 0.967 ± 0.091 | Q 1.24 ± 0.31 | R 0.978 ± 0.11 | S 0.925 ± 0.28 | T 0.956 ± 0.13 | W 1.09 ± 0.053 | Y 0.896 ± 0.28
T480: A 0.564 ± 0.23 | C 1.12 ± 0.052 | D 0.65 ± 0.2 | F 1.32 ± 0.13 | G 1.11 ± 0.26 | H 1.18 ± 0.072
